*1 amine or outer side, *2 acyl side, *3 side chain or, on linkers, in order; H or OH if unused. Bridges are numbered along the chain shown (N, C = ends). [ ]: non-standard residue; d: D form. The star is where a group is joined. DOTA = O=C(O)CN1CCN(CC(=O)O)CCN(CC(=O)*)CCN(CC(=O)O)CC1; N(2-mercaptoethyl)Gly = O=C(CN(CCS[*:3])[*:1])[*:2]
Experiments:
[1] = molecular target: human cloned somatostatin receptor 3 (human) (UniProt P32745); test: 125I-Tyr11-SRIF-14 displacement
[2] = molecular target: human cloned somatostatin receptor 2 (human) (UniProt P30874); test: 125I-Tyr11-SRIF-14 displacement
Chain of human cloned somatostatin receptor 2 (human) (P30874 whole entry): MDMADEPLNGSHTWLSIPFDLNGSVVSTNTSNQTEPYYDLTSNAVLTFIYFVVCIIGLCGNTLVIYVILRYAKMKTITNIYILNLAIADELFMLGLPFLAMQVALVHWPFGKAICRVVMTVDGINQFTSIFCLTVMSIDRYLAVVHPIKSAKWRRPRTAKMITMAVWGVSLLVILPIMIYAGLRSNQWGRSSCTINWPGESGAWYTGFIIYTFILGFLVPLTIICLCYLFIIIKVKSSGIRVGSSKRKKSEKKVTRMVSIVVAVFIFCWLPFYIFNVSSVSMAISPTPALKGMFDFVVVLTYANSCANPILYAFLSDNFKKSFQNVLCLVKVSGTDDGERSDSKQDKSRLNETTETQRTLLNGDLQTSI

[3] = molecular target: human cloned somatostatin receptor 5 (human) (UniProt P35346); test: 125I-Tyr11-SRIF-14 displacement
Chain of human cloned somatostatin receptor 5 (human) (P35346 whole entry): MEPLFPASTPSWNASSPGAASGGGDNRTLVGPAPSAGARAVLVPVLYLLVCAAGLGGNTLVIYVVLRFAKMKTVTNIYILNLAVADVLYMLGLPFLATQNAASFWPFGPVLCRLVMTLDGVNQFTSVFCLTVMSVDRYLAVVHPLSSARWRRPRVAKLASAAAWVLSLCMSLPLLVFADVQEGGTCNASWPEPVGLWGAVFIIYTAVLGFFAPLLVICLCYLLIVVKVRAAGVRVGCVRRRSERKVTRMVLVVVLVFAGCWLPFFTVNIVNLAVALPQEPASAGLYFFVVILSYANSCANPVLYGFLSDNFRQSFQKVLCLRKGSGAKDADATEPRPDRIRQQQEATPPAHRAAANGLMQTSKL

[4] = molecular target: human cloned somatostatin receptor 1 (human) (UniProt P30872); test: 125I-Tyr11-SRIF-14 displacement
Chain of human cloned somatostatin receptor 1 (human) (P30872 whole entry): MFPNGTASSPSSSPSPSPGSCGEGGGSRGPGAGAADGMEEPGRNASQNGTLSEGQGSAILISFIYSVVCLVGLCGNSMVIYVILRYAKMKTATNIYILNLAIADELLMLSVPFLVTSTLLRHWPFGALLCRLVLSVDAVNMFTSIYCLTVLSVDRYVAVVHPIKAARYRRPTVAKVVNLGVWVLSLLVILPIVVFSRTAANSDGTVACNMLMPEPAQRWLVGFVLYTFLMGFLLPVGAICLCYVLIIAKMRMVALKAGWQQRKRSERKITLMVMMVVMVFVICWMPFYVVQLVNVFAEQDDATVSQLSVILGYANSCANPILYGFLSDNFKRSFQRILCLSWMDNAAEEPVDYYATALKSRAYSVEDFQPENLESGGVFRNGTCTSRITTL

[5] = molecular target: TSHR(L) (human) (UniProt P16473); test: cell-based or functional assay
Chain of TSHR(L) (human) (P16473 21-764): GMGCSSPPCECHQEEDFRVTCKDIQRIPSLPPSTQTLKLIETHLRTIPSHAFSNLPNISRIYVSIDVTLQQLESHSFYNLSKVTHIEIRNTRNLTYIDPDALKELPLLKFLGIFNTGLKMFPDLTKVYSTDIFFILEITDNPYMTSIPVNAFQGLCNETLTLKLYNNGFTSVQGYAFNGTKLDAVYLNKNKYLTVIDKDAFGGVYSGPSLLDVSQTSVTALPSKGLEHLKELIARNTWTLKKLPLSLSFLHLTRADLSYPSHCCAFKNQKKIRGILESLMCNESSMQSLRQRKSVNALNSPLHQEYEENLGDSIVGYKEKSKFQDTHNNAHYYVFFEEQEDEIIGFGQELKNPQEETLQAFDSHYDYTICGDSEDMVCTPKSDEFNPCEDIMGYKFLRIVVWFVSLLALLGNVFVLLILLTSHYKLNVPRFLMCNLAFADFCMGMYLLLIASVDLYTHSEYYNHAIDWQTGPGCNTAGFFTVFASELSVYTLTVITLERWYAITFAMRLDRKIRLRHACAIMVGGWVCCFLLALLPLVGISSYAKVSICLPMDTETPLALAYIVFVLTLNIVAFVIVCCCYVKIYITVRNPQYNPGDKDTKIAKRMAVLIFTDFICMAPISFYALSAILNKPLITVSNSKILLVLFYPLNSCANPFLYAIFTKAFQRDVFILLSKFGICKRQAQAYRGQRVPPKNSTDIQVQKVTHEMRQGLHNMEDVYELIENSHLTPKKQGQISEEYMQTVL

[6] = molecular target: HRH1 (human) (UniProt P35367); test: cell-based or functional assay
[7] = molecular target: GCGR (human) (UniProt P47871); test: cell-based or functional assay
[8] = molecular target: PTGFR (human) (UniProt P43088); test: cell-based or functional assay
[9] = molecular target: NPFFR1 (human) (UniProt Q9GZQ6); test: cell-based or functional assay
[10] = molecular target: DRD2S (human) (UniProt P14416); test: cell-based or functional assay
Chain of DRD2S (human) (P14416 other isoform, or with tags, fused parts or gaps): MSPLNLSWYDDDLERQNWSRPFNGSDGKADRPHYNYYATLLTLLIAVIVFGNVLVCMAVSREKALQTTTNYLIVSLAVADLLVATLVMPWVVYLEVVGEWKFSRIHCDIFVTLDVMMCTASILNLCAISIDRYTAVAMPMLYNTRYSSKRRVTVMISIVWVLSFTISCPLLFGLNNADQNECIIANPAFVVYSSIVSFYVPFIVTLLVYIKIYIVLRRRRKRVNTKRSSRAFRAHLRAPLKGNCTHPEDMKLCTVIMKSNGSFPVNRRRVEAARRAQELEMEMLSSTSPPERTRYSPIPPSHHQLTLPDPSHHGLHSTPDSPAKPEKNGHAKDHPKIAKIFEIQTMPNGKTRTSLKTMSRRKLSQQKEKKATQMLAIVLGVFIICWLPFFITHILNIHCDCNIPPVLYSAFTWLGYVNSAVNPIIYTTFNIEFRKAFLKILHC

[11] = molecular target: OPRK1 (human) (UniProt P41145); test: cell-based or functional assay
[12] = molecular target: C5L2 (human) (UniProt Q9P296); test: cell-based or functional assay
[13] = molecular target: TBXA2R (human) (UniProt P21731); test: cell-based or functional assay
[14] = molecular target: HTR1E (human) (UniProt P28566); test: cell-based or functional assay
[15] = molecular target: CHRM3 (human) (UniProt P20309); test: cell-based or functional assay
[16] = molecular target: DRD1 (human) (UniProt P21728); test: cell-based or functional assay
[17] = molecular target: P2RY4 (human) (UniProt P51582); test: cell-based or functional assay
[18] = molecular target: DRD2L (human) (UniProt P14416); test: cell-based or functional assay
Chain of DRD2L (human) (P14416 whole entry): as the sequence (P14416 other isoform, or with tags, fused parts or gaps) above, with S2D counted along it

[19] = molecular target: CALCR (CR) (human) (UniProt P30988); test: cell-based or functional assay
[20] = molecular target: human cloned somatostatin receptor 3 (human) (UniProt P32745); test: cell-based or functional assay
[21] = molecular target: CCR6 (human) (UniProt P51684); test: cell-based or functional assay
[22] = molecular target: PROKR1 (human) (UniProt Q8TCW9); test: cell-based or functional assay
[23] = molecular target: MLNR (human) (UniProt O43193); test: cell-based or functional assay
[24] = molecular target: CNR2 (human) (UniProt P34972); test: cell-based or functional assay
[25] = molecular target: PTGIR (human) (UniProt P43119); test: cell-based or functional assay
[26] = molecular target: P2RY6 (human) (UniProt Q15077); test: cell-based or functional assay
[27] = molecular target: AVPR1A (human) (UniProt P37288); test: cell-based or functional assay
Chain of AVPR1A (human) (P37288 whole entry): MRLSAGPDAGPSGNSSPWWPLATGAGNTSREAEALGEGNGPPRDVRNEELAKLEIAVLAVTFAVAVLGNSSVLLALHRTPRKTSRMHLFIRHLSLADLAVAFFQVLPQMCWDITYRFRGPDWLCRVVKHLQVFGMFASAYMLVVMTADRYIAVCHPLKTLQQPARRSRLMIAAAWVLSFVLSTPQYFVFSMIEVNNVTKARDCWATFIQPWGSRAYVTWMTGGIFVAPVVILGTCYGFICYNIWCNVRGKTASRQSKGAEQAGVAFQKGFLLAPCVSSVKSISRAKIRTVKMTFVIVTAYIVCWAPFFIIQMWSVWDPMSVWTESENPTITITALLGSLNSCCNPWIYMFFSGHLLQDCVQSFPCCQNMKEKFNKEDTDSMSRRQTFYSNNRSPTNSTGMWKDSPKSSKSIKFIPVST

[28] = molecular target: PROKR2 (human) (UniProt Q8NFJ6); test: cell-based or functional assay
[29] = molecular target: OXER1 (human) (UniProt Q8TDS5); test: cell-based or functional assay
[30] = molecular target: CNR1 (human) (UniProt P21554); test: cell-based or functional assay
[31] = molecular target: MCHR1 (human) (UniProt Q99705); test: cell-based or functional assay
[32] = molecular target: EDNRB (human) (UniProt P24530); test: cell-based or functional assay
[33] = molecular target: AGTR1 (human) (UniProt P30556); test: cell-based or functional assay
[34] = molecular target: GPR1 (human) (UniProt P46091); test: cell-based or functional assay
[35] = molecular target: F2R (human) (UniProt P25116); test: cell-based or functional assay
[36] = molecular target: CCR5 (human) (UniProt P51681); test: cell-based or functional assay
[37] = molecular target: DRD3 (human) (UniProt P35462); test: cell-based or functional assay
[38] = molecular target: MC1R (human) (UniProt Q01726); test: cell-based or functional assay
[39] = molecular target: ADORA3 (human) (UniProt P0DMS8); test: cell-based or functional assay
Chain of ADORA3 (human) (P0DMS8 whole entry): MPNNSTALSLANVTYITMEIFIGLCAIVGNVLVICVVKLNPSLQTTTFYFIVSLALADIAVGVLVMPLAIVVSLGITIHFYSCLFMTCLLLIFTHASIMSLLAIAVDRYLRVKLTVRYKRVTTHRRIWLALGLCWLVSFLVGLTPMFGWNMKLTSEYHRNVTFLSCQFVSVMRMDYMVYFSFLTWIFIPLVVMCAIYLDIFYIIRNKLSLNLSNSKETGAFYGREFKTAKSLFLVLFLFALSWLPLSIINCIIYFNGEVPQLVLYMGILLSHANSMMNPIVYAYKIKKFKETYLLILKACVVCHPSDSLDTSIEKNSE

[40] = molecular target: CMKLR1 (human) (UniProt Q99788); test: cell-based or functional assay
[41] = molecular target: PTAFR (human) (UniProt P25105); test: cell-based or functional assay
[42] = molecular target: TACR3 (human) (UniProt P29371); test: cell-based or functional assay
[43] = molecular target: CXCR4 (human) (UniProt P61073); test: cell-based or functional assay
[44] = molecular target: AVPR1B (human) (UniProt P47901); test: cell-based or functional assay
[45] = molecular target: PTHR1 (human) (UniProt Q03431); test: cell-based or functional assay
Chain of PTHR1 (human) (Q03431 27-593): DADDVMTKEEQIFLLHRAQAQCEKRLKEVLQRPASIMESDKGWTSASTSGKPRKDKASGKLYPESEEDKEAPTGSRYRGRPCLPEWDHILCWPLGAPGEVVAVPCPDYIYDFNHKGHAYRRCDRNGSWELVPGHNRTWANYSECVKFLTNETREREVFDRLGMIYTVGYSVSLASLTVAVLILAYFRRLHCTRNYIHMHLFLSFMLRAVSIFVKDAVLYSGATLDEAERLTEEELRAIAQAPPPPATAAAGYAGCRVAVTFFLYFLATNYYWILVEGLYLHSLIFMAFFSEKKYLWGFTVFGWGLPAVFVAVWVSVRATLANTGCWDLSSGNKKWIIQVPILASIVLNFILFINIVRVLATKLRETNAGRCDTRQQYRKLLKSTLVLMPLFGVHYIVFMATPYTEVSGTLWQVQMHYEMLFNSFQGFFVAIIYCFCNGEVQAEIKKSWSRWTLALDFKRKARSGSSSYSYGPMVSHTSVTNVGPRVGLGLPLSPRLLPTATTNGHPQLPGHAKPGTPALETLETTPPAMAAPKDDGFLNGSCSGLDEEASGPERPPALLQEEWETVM

[46] = molecular target: EDG1 (human) (UniProt P21453); test: cell-based or functional assay
Chain of EDG1 (human) (P21453 whole entry): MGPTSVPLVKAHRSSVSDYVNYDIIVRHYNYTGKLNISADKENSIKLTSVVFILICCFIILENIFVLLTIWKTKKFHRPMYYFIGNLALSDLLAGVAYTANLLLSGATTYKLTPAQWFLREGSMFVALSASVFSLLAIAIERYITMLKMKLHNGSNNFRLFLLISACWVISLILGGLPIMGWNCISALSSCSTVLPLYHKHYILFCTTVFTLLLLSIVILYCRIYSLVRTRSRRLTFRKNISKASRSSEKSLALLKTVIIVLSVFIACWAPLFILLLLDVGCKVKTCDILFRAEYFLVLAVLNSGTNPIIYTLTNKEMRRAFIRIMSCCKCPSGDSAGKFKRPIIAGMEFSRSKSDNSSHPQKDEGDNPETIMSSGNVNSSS

[47] = molecular target: HCRTR2 (human) (UniProt O43614); test: cell-based or functional assay
[48] = molecular target: MC4R (human) (UniProt P32245); test: cell-based or functional assay
[49] = molecular target: NPBWR2 (human) (UniProt P48146); test: cell-based or functional assay
[50] = molecular target: P2RY11 (human) (UniProt Q96G91); test: cell-based or functional assay
Chain of P2RY11 (human) (Q96G91 whole entry, one chain of several): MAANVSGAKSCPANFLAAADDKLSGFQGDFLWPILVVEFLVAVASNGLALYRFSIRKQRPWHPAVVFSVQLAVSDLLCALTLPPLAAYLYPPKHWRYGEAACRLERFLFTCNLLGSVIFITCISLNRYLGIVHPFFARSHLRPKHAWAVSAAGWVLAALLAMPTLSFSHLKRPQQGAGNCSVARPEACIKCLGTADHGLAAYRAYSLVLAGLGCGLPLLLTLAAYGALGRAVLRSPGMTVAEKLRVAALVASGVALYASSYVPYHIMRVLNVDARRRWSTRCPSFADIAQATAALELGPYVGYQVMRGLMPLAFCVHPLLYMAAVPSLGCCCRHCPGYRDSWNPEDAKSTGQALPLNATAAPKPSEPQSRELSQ

[51] = molecular target: PTHR2 (human) (UniProt P49190); test: cell-based or functional assay
[52] = molecular target: BDKRB2 (human) (UniProt P30411); test: cell-based or functional assay
[53] = molecular target: ADCYAP1R1 (human) (UniProt P41586); test: cell-based or functional assay
[54] = molecular target: CHRM1 (human) (UniProt P11229); test: cell-based or functional assay

Chain of human cloned somatostatin receptor 3 (human) (P32745 whole entry): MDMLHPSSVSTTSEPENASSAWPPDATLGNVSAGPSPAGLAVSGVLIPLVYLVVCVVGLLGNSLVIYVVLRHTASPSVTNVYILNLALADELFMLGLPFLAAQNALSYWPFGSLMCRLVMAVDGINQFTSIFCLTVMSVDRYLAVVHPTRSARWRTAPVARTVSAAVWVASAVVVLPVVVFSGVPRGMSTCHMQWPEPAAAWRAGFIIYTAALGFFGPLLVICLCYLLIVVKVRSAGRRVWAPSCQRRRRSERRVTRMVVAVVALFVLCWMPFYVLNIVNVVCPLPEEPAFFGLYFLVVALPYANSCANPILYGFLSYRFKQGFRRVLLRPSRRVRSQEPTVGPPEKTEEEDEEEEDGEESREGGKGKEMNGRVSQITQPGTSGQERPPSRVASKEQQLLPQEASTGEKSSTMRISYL

{DOTA}-[dF]RCF[dW]KTF[N(2-mercaptoethyl)Gly]-NH2 (disulfide 3-9; also: Ga complex of DOTA) [SEQ ID NO: 4]
IC50 [1]: 1 nM
IC50 [2]: 56 nM
Ki [2]: 30 nM
IC50 [3]: 140 nM
Ki [3]: 78 nM
IC50 [4]: > 1000 nM
Ki [4]: 880 nM
% Activity (agonist mode, 1 µM) [5]: -1%
% Activity (agonist mode, 1 µM) [6]: -1%
% Activity (agonist mode, 1 µM) [7]: -2%
% Activity (agonist mode, 1 µM) [8]: 0%
% Activity (agonist mode, 1 µM) [9]: -2%
% Activity (agonist mode, 1 µM) [10]: 0%
% Activity (agonist mode, 1 µM) [11]: -2%
% Activity (agonist mode, 1 µM) [12]: -1%
% Activity (agonist mode, 1 µM) [13]: 1%
% Activity (agonist mode, 1 µM) [14]: 1%
% Activity (agonist mode, 1 µM) [15]: 1%
% Activity (agonist mode, 1 µM) [16]: 0%
% Activity (agonist mode, 1 µM) [17]: 1%
% Activity (agonist mode, 1 µM) [18]: -1%
% Activity (agonist mode, 1 µM) [19]: 0%
% Activity (agonist mode, 1 µM) [20]: 200%
Cellular Internalization EC50 (β-Arrestin Luminescence Assay) [20]: 16 nM
Efficacy - maximal response [20]: 75200 RLU
intensity of beta-arrestin response against SRIF-14 [20]: 2 fold
% Activity (agonist mode, 1 µM) [21]: 0%
% Activity (agonist mode, 1 µM) [22]: 0%
% Activity (agonist mode, 1 µM) [23]: 1%
% Activity (agonist mode, 1 µM) [24]: 2%
% Activity (agonist mode, 1 µM) [25]: 0%
% Activity (agonist mode, 1 µM) [26]: 0%
% Activity (agonist mode, 1 µM) [27]: 0%
% Activity (agonist mode, 1 µM) [28]: 2%
% Activity (agonist mode, 1 µM) [29]: -2%
% Activity (agonist mode, 1 µM) [30]: -1%
% Activity (agonist mode, 1 µM) [31]: -1%
% Activity (agonist mode, 1 µM) [32]: 0%
% Activity (agonist mode, 1 µM) [33]: -2%
% Activity (agonist mode, 1 µM) [34]: 0%
% Activity (agonist mode, 1 µM) [35]: 1%
% Activity (agonist mode, 1 µM) [36]: 1%
% Activity (agonist mode, 1 µM) [37]: 9%
% Activity (agonist mode, 1 µM) [38]: 1%
% Activity (agonist mode, 1 µM) [39]: -6%
% Activity (agonist mode, 1 µM) [40]: 0%
% Activity (agonist mode, 1 µM) [41]: -2%
% Activity (agonist mode, 1 µM) [42]: 1%
% Activity (agonist mode, 1 µM) [43]: 3%
% Activity (agonist mode, 1 µM) [44]: 1%
% Activity (agonist mode, 1 µM) [45]: 0%
% Activity (agonist mode, 1 µM) [46]: 0%
% Activity (agonist mode, 1 µM) [47]: 0%
% Activity (agonist mode, 1 µM) [48]: 0%
% Activity (agonist mode, 1 µM) [49]: 1%
% Activity (agonist mode, 1 µM) [50]: 0%
% Activity (agonist mode, 1 µM) [51]: 0%
% Activity (agonist mode, 1 µM) [52]: 0%
% Activity (agonist mode, 1 µM) [53]: 0%
% Activity (agonist mode, 1 µM) [54]: -1%

From patent US20240165282A1, “CONFORMATIONAL CONSTRAINED SOMATOSTATIN RECEPTOR 3 PEPTIDE LIGANDS AND THEIR CONJUGATES AND USES THEREOF” (STARGET PHARMA LTD., priority 2021, published 2024)
